Usually koff stands for a measure of how fast the partners let go of each other. The low end stands for a long-lived complex, the high end for a short-lived complex. As a reminder, the kon is the rate constant with which the complex forms.

For one experiment, the target named is T1, R2-IgD4-5 (human, UniProt P35968).
T1 construct: recombinant fragment; also called immunoglobin-like domains 4-5 of VEGFR2
Kind of experiment: cell-based competitive ELISA: R2C9-11 absorbed with the soluble domains, then bound to fixed 293T/VEGFR2 cells, OD405. Here is the method:
The optimal concentration of R2C7-1 and R2C9-11 mAbs (200 μg/mL and 50 μg/mL, respectively) were absorbed with the designated doses of the individual immunoglobin-like domains of VEGFR2 (R2-IgDs) antigens. After, the fixed 293T/VEGFR2 cells were incubated with the absorbed antibodies at 37° C. for 30 min. The bound antibodies were probed with goat-anti-mouse IgG conjugated with HRP, visualized by addition of ABTS, and measured at OD₄₀₅ using the SpectraMax microplate reader. Data are represented as means±S.D. of the percentage of isotype control (CTL) in triplicate. The potential epitope locations of R2C7-1 (upper) and R2C9-11 (lower) on the VEGFR2 antigen are indicated by black lines spanning IgD6 and IgD7 in the schematics.
To define the recognition epitopes of R2C7-1 and R2C9-11 antibodies, cell-based competitive enzyme-linked immunosorbent assay (ELISA) was performed. HEK293T/VEGFR2 transfectants (5 X×10⁴/well) were coated and fixed on 96-well plates. The optimal concentrations, the highest concentration of the log phase, of R2C7-1 and R2C9-11 antibodies for binding to the cells, were determined using a standard ELISA procedure (data not shown). […]
The epitopes of R2C7-1 and R2C9-11 anti-VEGFR2 antibodies were determined by cell-based competitive ELISA. […]
(ELISA stands for enzyme-linked immunosorbent assay.)

The target of a further experiment is T2, VEGFR3 IgD3-4 (UniProt P35916 219-415, limits assumed).
T2 construct: domain: IgD3-4; also called VEGFR3-ED Ig D3-4-myc; not shown: myc tag (pCMV6-XL6-myc vector)
T2 sequence (looked up): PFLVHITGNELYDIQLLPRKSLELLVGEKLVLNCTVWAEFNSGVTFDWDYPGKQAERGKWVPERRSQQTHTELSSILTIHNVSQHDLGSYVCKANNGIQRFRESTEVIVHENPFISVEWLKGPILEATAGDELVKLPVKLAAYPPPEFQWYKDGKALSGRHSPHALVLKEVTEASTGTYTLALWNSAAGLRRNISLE
In words: native PAGE of the purified myc-tagged fragment, blot probed with R2C9-11. Here is the method: FIG. 11 is a set of graphs showing determination of the binding epitopes of R2C7-1 and R2C9-11 antibodies on VEGFR3 antigen. Panel A, Cell-based competitive. ELISA. HEK293T cells expressing VEGFR3 (293T/VEGFR3) were coated in 96-well plates. The optimal concentrations of R2C7-1 and R2C9-11 mAbs were determined as described previously (data now shown). The optimal concentrations of R2C7-1 and R2C9-11 mAbs were absorbed with the designed doses of the individual immunoglobin-like domains of VEGFR3 (R3-IgDs) antigens, as indicated. The bound antibodies were immune-probed with secondary antibody conjugated with HRP, visualized by addition of ABTS, and measured at OD₄₀₅ using a microplate reader (SpectraMax). Data are represented as means±S.D. of percentage of isotype control (CTL) in triplicate. The epitope locations of R2C7-1 and R2C9-11 on the VEGFR3 antigen are indicated by the black lines spanning IgD6 in the schematics. Panel B, Native gel electrophoresis. The whole extracellular domain (R3-IgD1-7), domain 3-4 (R3-IgD3-4) and domain 6-7 (R3-IgD6-7) were constructed, expressed in the E. coli, and purified using the anti-Myc affinity purification system. […] The binding of R2C7-1 and R2C9-11 to the VEGFR3 truncated antigens was evaluated with native gel electrophoresis to confirm the epitopes of R2C7-1 and R2C9-11 mAbs (middle and right, respectively). […]

For a further experiment, the target named is T3, VEGFR2 (KDR)-IgD 4-7 (human, UniProt P35968 328-753).
T3 construct: domain: IgD4-7; Expressed in E. coli; also called recombinant IgD4-7 of VEGFR2; VEGFR2-ED Ig D4-7
In words: Biacore; antibody as flow analyte, KDR-IgD4-7 as ligand. In general terms: SPR reads the build-up and loss of mass on a sensor chip optically.

For another experiment, the target named is T4, VEGFR3 (Flt-4)-IgD 4-7 (UniProt P35916 331-764, limits assumed).
T4 construct: domain: IgD4-7; The methods describe no D4-7 construct of VEGFR3; tag and expression host are unknown; also called recombinant IgD4-7 of VEGFR3
T4 sequence (looked up): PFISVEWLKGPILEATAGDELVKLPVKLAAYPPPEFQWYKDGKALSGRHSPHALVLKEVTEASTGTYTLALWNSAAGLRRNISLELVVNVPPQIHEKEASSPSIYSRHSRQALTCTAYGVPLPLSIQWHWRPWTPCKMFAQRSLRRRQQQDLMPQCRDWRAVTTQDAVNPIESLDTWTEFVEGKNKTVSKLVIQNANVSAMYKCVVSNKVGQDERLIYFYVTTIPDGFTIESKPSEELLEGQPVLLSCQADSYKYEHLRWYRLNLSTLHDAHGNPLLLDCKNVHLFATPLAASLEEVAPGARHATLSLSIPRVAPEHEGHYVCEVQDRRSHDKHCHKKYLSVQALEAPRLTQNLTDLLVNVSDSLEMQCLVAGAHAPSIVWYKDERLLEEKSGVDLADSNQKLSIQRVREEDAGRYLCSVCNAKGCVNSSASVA
Kind of experiment: Biacore; antibody as flow analyte, Flt 4-IgD4-7 as ligand.

T3 sequence (P35968 328-753 limits assumed): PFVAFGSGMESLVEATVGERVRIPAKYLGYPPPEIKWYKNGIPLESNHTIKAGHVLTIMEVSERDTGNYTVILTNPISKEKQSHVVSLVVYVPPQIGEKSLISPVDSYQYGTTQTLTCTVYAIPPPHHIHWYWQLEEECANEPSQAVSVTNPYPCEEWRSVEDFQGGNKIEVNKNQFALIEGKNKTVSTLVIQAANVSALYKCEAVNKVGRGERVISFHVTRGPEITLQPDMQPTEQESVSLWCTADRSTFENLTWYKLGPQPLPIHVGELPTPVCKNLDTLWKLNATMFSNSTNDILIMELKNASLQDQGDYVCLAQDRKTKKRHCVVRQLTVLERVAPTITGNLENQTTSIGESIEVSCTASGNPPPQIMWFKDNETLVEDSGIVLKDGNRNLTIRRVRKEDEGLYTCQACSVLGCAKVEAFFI
T1 sequence (P35968 328-548 limits assumed): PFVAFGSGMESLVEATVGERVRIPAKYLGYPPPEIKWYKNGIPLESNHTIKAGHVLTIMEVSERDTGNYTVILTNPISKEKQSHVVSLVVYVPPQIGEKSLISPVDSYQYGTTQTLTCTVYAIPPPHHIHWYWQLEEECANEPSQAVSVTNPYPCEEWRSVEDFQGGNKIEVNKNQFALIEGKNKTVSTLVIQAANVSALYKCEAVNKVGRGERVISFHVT

B1: R2C9-11 monoclonal antibody (antibody, V domains shown)
VH: QVQLQQPGAELVKPGASVKLSCKASGYTFTSYWMHWVKQRPGQGLEWIGEINPSNGRTNYNEKFKSKATLTVDKSSSTAYMQLSSLTSEDSAVYYCANLYFDVWGAGTTVTVSS
VL: DIVMTQSPSSLSVSAGEKVTMSCKSSQNLLNSGNQKYYLAWYQQKPGQPPKLLIYGASIRESGVPDRFIGSGSGTDFTLTISSVQAEDLAVYFCQSDHSYPYTFGGGTKLEIK
notes: Mouse monoclonal antibody purified from hybridoma supernatant; An IgG2a isotype antibody served as its control; also called R2C9-11 mAb
As for B1, the values for the binding result with R2-IgD4-5 and with VEGFR3 IgD3-4 were “no binding (tested: 20 (unit not printed on the sheet))” and “no binding”, respectively. Moreover, the koff with VEGFR2 (KDR)-IgD 4-7 is 1.3e-05 s⁻¹; in the experiment with VEGFR3 (Flt-4)-IgD 4-7 it was 0.0034 s⁻¹. In the experiment with VEGFR3 (Flt-4)-IgD 4-7, this molecule gave a kon of 3.2e+06 M⁻¹ s⁻¹.

B2: R2C7-1 monoclonal antibody (antibody, V domains shown)
VH: EVQLQQSGPELVKPGASVKISCKASGYSFTDYFINWVIQRHGKSLEWVGRINPYNGGSFYNQKFKDKATLTVDKSSNIAHMELRSLASEDSAIYYCARSGGNGYDYWGQGTTLTVSS
VL: DIVMTQAAPSVPVIPGESVSISCRSSKSLLHSNGNTYLYWFLQRPGQSPQLLIYRMSNLASGVPDRFSGSGSGTAFTLRISRVEAEDVGVYYCMQHLEYPYTFGGGTKVEIK
notes: Mouse monoclonal antibody purified from hybridoma supernatant; An IgG2a isotype antibody served as its control; also called R2C7-1 mAb
Regarding B2, in the experiment with VEGFR2 (KDR)-IgD 4-7, the koff worked out at 0.0024 s⁻¹. In the experiment with VEGFR3 (Flt-4)-IgD 4-7, this molecule gave a koff of 0.0049 s⁻¹ and a kon of 1.5e+06 M⁻¹ s⁻¹.
